Reference: EP4810516A1

Target: γ9δ2 TCR on human γ9δ2 T cells (human) (UniProt Q99603)
Test: FACS, serially diluted antibody on γ9δ2 T cells, anti-human Fc secondary

Chain of γ9δ2 TCR on human γ9δ2 T cells (human) (Q99603 21-122, stated change not applied, chain 1 of 2): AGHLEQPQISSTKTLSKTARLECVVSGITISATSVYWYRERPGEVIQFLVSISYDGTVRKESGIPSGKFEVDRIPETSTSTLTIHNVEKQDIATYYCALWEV
Chain of γ9δ2 TCR on human γ9δ2 T cells (human) (A0JD36 20-115, stated change not applied, chain 2 of 2, further chain): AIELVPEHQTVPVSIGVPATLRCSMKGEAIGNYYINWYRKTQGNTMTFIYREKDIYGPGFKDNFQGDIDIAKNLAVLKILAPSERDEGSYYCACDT

B1: SDP01369 (antibody, human IgG1, kappa, V domains shown)
VH: EVQLVESGGGLVKPGGSLRLSCAASGFTFSSYAMSWVRQAPGKRLEWVASISSGGSTYYPDSVKGRFTISRDNAKNSLYLQMNSLRAEDTAVYYCARDGYPPFDYWGQGTTVTVSS
VL: DIQMTQSPSSVSASVGDRVTITCKASQNVGTNVAWYQQKPGKAPKALIYSASYRYSGVPSRFSGSGSGTDFTLTISSLQPEDFATYYCQQYNSFPLTFGQGTKLEIKR
EC50: 1.74 nM
Max MFI: 15000 MFI
